In patent publication US20240352121A1, “LAIR-1 AGONISTIC ANTIBODIES AND METHODS OF USE THEREOF” (NEXTCURE, INC., priority 2023, published 2024):

Tests used:
[1] = Pharmacokinetic study in balb/c mice; assay type: in vivo; conditions: 10 mg/kg intraperitoneal, blood serum
Description: Balb/c mice were intraperitoneally injected with 10 mg/kg h11B3. Mice were subsequently bled by cheek-vein puncture at the indicated time points. Blood serum was isolated by centrifugation at 2500 RCF in serum-collection tubes. Blood serum was tested for circulating h11B3 by Universal PK assay. Briefly, h11B3 in mouse serum was captured using a biotin-labeled anti-human IgG inside a nanoliter column of a Gyrolab CD. Alexa Fluor labeled anti-human IgG was used for detection. The quantitative dynamic range was (500-100,000) ng/ml (LLOQ-ULOQ). The standard curve and controls were prepared in pooled Balb/C serum (Biochemed). Standard curve, controls, and samples were diluted 1:10-fold (MRD) in buffer. Samples above the upper limit of quantitation (100,000 ng/mL) were brought within range by diluting them in Rexiip buffer. The laser-induced fluorescence detection technique detected the amount of analyte present in the sample. The standard curve signals were used to interpolate unknown sample concentrations. All samples were analyzed in duplicates and assigned an acceptance criteria (±20% CV and Bias). Gyrolab Evaluator software was used to perform 4PL with Y weighing non-linear regression to interpolate unknown sample concentrations.

[2] = tested on: AML patient LSCs engrafted in mice; assay: AML patient-derived xenograft (PDX) model; assay type: in vivo, NSG-SGM3 mice; conditions: 5 mg/kg i.p. weekly, 4 doses; at any time point
Description: (§1) Newborn (3-5 day from birth) NSG-SGM3 pups were sub-lethally (200 cGy) irradiated. 12 hours post-irradiation, mice were intra-hepatically transplanted with 0.2e6 AML bone-marrow cells or normal CD34 HSCs from cryopreserved stocks. 6 weeks post-transplant, blood was collected to assess engraftment of progenitor cells via flow cytometry, staining for human CD45, human CD33, and human CD3. Once engraftment of human cells was confirmed, 5 mg/kg of anti-human LAIR-1 mAb or isotype control was intraperitoneally injected weekly for a total of 4 doses. At the indicated timepoints post-treatment, blood was collected to assess the proliferation of AML cells as a measure of LAIR-1 mAb anti-leukemic activity as compared to isotype control. For standard-of-care combination studies, PDX mice were treated with 20 mg/kg venetoclax 5 days on and 2 days off for 5 weeks, and X 1.5 mg/kf-tiw azacytidine upfront one week only. LAIR-1 mAb was treated i.p. once per week for 5 weeks. Blood was harvested as described above to measure leukemic growth and spleens were harvested at endpoint and weighed for assessment of splenomegaly. For secondary transplant studies, mice were engrafted as above. […] Leukemia progression in recipient mice was measured by flow cytometry by quantifying the percent of human CD33^+ human CD45^+ cells in peripheral blood at weeks 4, 6, and 10 weeks post-transplant.

[3] = tested on: LSCs within the bone-marrow of PDX donor animals; assay: PDX secondary transplant model; assay type: in vivo, NSG-SGM3 mice; conditions: bone-marrow from PDX donors treated for 4 weeks; no further treatment
Description: as §1

[4] = tested on: MV4-11 cells; assay: MV4-11-luciferase cell-derived xenograft (CDX) model; assay type: in vivo, NSG mice
Description: 2e6 luciferase-expressing MV4-11-Luc or THP-1-Luc cells were suspended in sterile PBS and implanted into NSG mice via tail-vein injection. […] AML cell proliferation was monitored by weekly i.p. injection of D-Luciferin, immediately followed by IVIS bioluminescent imaging and quantification of luminescent signal. […] Imaging Perkin Elmore IVIS Lumina XRMS Series III.
NSG mice were injected with 2e6 THP-1 luciferase cells or 2e6 MV4-11-luciferase cells via tail vein injection. Leukemia progression was quantified by i.p. injection of 100 μL bioluminescent substrate and IVIS imaging 8 minutes post injection. Progression was assessed weekly staring on Day 7 post-challenge. 10 mg/kg mab treatment was performed by i.p injection starting on day 8 and continuing twice a week until the end of the study. For the subcutaneous engraftment model, NSG mice were subcutaneously injected on the right flank with 5e6 MV4-11-Luc-LAIR-1^OE cells. Mice were treated by weekly i.p. injection of 10 mg/kg mAb. Tumor growth was measured by calipers twice weekly until end point.

[5] = tested on: THP-1 cells; assay: THP-1-luciferase cell-derived xenograft (CDX) model; assay type: in vivo, NSG mice; conditions: 10 mg/kg i.p. twice a week
Description: FIGS. 29A-29C display h11B3 LAIR-1 mAbs, containing a variable light chain of SEQ ID NO: 16 and a variable heavy chain of SEQ ID NO:27, limits Leukemic cell growth in CDX Models. 2e6 luciferase-expressing MV4-11-Luc or THP-1-Luc cells were suspended in sterile PBS and implanted into NSG mice via tail-vein injection. Starting on day 8 post-challenge, mice were treated twice-weekly by intraperitoneal (i.p.) injection of 10 mg/kg of h11B3 LAIR-1 mAbs, containing a variable light chain of SEQ ID NO: 16 and a variable heavy chain of SEQ ID NO:27, or isotype (FIG. 29A). AML cell proliferation was monitored by weekly i.p. injection of D-Luciferin, immediately followed by IVIS bioluminescent imaging and quantification of luminescent signal. Mice NOD.Cg-Prkdcscid Il2rgtm1Wjl/SzJ (NSG) purchased from Jackson Labs strain #005557. Substrate Xenolight RediJect D-Luciferin Perkin Elmore Cat #770504. Imaging Perkin Elmore IVIS Lumina XRMS Series III.
NSG mice were injected with 2e6 THP-1 luciferase cells or 2e6 MV4-11-luciferase cells via tail vein injection. Leukemia progression was quantified by i.p. injection of 100 μL bioluminescent substrate and IVIS imaging 8 minutes post injection. Progression was assessed weekly staring on Day 7 post-challenge. […] Tumor growth was measured by calipers twice weekly until end point.

[6] = tested on: healthy CD34+ cells; assay: NC525 clustering of LAIR-1 in healthy CD34+ cells; assay type: cell-based, human

B1: LAIR-1 mAb: humanized agonist anti-LAIR-1 mAb, IgG1 backbone; h11B3 VL-2 (SEQ ID NO: 16), h11B3 VH-3 (SEQ ID NO: 27) (antibody, V domains shown)
VH: EVQLVESGGGLVQPGGSLKLSCAASGFTFNTNAMYWVRQAPGKGLEWVGRIRSKSSNYATYYAASVKGRFTISRDDSKNTLYLQMNSLKTEDTAVYYCVRGGSGFFAYWGQGTLVTVSS
VL: DIQMTQSPSSLSASLGDRVTITCKASEDIYIRLAWYQQKPGKAPRLLISTATSLETGVPSRFSGSGSGTDYTFTISSLQPEDIATYYCQQYWSTPYTFGGGTRLEIK
modifications: IgG1 constant regions; Synthetic: h11B3 VH-3; Synthetic: h11B3 VL-2
Tmax [1]: 8 h
human CD45 CD33 cells in circulation [2]: < 10%
disease development in secondary recipient mice [3]: developed no disease
leukemic cell growth in vivo ([4]; 10 mg/kg i.p. twice a week): inhibited leukemic cell growth
inhibition of LAIR-1 OE AML growth compared to LAIR-1 WT ([4]; MV4-11 LAIR-1 OE vs WT cells): more strongly inhibiting
tumor burden ([4]; biweekly dose of 10 mg/kg, flow cytometry of spleen and bone marrow): reduce tumor burden
AML cells in the blood, spleen, and bone marrow ([4]; mouse, in vivo): nearly absent
percentage of dead MV4-11 cells in blood, spleen, and bone-marrow ([4]; mouse, in vivo): increased
MV4-11 in vivo growth, monotherapy ([4]; physiologically relevant doses, 10 mg/kg NC525, 100 mg/kg VEN, 0.5 mg/kg AZA): significantly better activity than AZA monotherapy
leukemic cell growth in vivo [5]: inhibited leukemic cell growth
changes in signaling activity [6]: minimal changes
